{
  "source": "the nanobody polyreactivity screen of Harvey et al. (2022)",
  "data": [
    {"experiment": "yeast display, Sf9 membrane polyspecificity reagent, FACS + sequencing; frameworks hold sequencing errors", "outline": "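After 36–48 hours of galactose induction, yeast (Saccharomyces cerevisiae BJ5465) displaying a synthetic nanobody library were stained at 4 °C for 1 hour with 10% biotinylated, detergent-solubilized Sf9 membrane reagent. Streptavidin microbeads enriched the stained cells before FACS sorting into low and high (top ~1%) gates on anti-HA and streptavidin fluorescence. Each clone's polyreactivity label reflects its gate of origin.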", "values": [
      {"sequence": "QVQLVESGGGLVQAGGSLRLSCAASGLTSYSYAMGWYRPAPGKERELVAAITVNGGRTYYADSVKGRFTISRDNAKNTVYLQMNSLKPEDTAVYYCAAREVTGRPRSYYYWGQGTQVTVSS", "polyreactivity (PSR sort gate)": "low polyreactivity"},
      {"sequence": "QVQLVESGGGLVQAGGSLRLSCAASGMIFADYVMGWYRQAPGKERELVATINQGGGSTYYADSVKGRFTISRDNAKNTVYLQMNSLKPEDTAVYYCAATWALLYAIFESYDYWGQGTQVTVSS", "polyreactivity (PSR sort gate)": "low polyreactivity"},
      {"sequence": "QVQLVESGGGLVQAGGSLRLSCAASGMIFFNYYAMGWYRQAPGKESELVAAIRYGGGSTYYADSVKGRFTISRDNGKNTVYLQMNSLKPEDTAVYYCAARFKGYYRYGYWGQGTQVTVSS", "polyreactivity (PSR sort gate)": "high polyreactivity"},
      {"sequence": "QVQLVESGGGLVQAGGSLRLSCAASGMIFPGNTMGWYRQAPGKERELVAAITNGVSTNYADSVKGRFTISRDNAKNTVYLQMNSLKPEDTAVYYCNGPFNYVGGYSNYSGFVYWGQGTQVTVSS", "polyreactivity (PSR sort gate)": "high polyreactivity"},
      {"sequence": "QVQLVESGGGLVQAGGSLRLSCAASGMIFVNAMGWYRQAPGKEREFVAAITYSTGSTYYADSVKGRFTISRDNAKNTVYLQMNSLKPEDTAVYYCAKDRSGHGTERDYWGQGTQVTVSS", "polyreactivity (PSR sort gate)": "low polyreactivity"},
      {"sequence": "QVQLVESGGGLVQAGGSLRLSCAASGNAMGWYRQAPGKERELVAAITRRGGSTYYADSVKGRFTISRDNAKNTVYLQMNSLKPEDTAVYYCNADYAYYSYDYWGQGTQVTVSS", "polyreactivity (PSR sort gate)": "low polyreactivity"},
      {"sequence": "QVQLVESGGGLVQAGGSLRLSCAASGNFFVLYAMGWYRQAPGKERELVASITSDGITYYADSGKGRFTISRDNAKNTVYLQMNSLKPEDTAVYYCAVDRSYRYLPRGDYWGQGTQVTVSS", "polyreactivity (PSR sort gate)": "low polyreactivity"},
      {"sequence": "QVQLVESGGGLVQAGGSLRLSCAASGNIFAPNAMGWYRQAPGKERELVAAISRSGGSTHYADSVKGRFTISRDNAKNTVYLQMNSLKPEDTAVYYCAAGWYGRYTSKMGYWGQGTQVTVSS", "polyreactivity (PSR sort gate)": "high polyreactivity"},
      {"sequence": "QVQLVESGGGLVQAGGSLRLSCAASGNIFAYYAMGWYRQAPGKERELVAAITDSGGNTFYADSVKGRFTISRDNAKNTVYLQMNSLKPEDTAVYYCAVRHRYTRAYWGRDYWGQGTQVTVSS", "polyreactivity (PSR sort gate)": "low polyreactivity"},
      {"sequence": "QVQLVESGGGLVQAGGSLRLSCAASGNIFDEYTMGWYRQAPGKEREFVAGISDDGDTSYADSVKGRFTISRDNAKNTVYLQMNSLKPEDTAVYYCNADDLSYYESYWGFLYDYWGQGTQVTVSS", "polyreactivity (PSR sort gate)": "low polyreactivity"},
      {"sequence": "QVQLVESGGGLVQAGGSLRLSCAASGNIFDGYAMGWYRQAPGKEREMVAAITSSAGSTYYADSVKGRFTISRDNAKNTVYLQMNSLKPEDTAVYYCNKVTKYRPIEGSWGQGTQVTVSS", "polyreactivity (PSR sort gate)": "high polyreactivity"},
      {"sequence": "QVQLVESGGGLVQAGGSLRLSCAASGNIFDIYAMGRYRQAPGKERELVAAISSGGSTYYADSVKGRFTISRDNAKNTVYLQMNSLKPEDTAVYYCAESRVGYYRYEYWGQGTQVTVSS", "polyreactivity (PSR sort gate)": "low polyreactivity"},
      {"sequence": "QVQLVESGGGLVQAGGSLRLSCAASGNIFDIYAMGWYRPAPGTERELVAAISSGGSTYYADSVKGRFTISRDNAKNTVYLQMNSLKPEDTAVYYCAESRVGYYRYEYWGQGTQVTVSS", "polyreactivity (PSR sort gate)": "low polyreactivity"},
      {"sequence": "QVQLVESGGGLVQAGGSLRLSCAASGNIFDRYAMGWYRQAPGKERELVAGITWSGGSTYYADSVKGRFTISRDNAKNTVYLQMNSLKPEDTAVYYCGQANYYWGQGSQVTVSS", "polyreactivity (PSR sort gate)": "low polyreactivity"},
      {"sequence": "QVQLVESGGGLVQAGGSLRLSCAASGNIFDRYVMGWYRQAPVKERELVAAISVSGGSTYYADSVKGRFTISRDNEKNSVYLQMNCLKPEDTAVYYCAAHSRLINWYDYWGQGTQVTVSS", "polyreactivity (PSR sort gate)": "high polyreactivity"},
      {"sequence": "QVQLVESGGGLVQAGGSLRLSCAASGNIFFIYAMGWYRQAPGKERELVAAITSTGSTYYADSVKGRFTISRDNAKNTVYLQMNSLKPEDTAVYYCAALLQRRFAYDYWGQGTQVTVSS", "polyreactivity (PSR sort gate)": "low polyreactivity"},
      {"sequence": "QVQLVESGGGLVQAGGSLRLSCAASGNIFFTYAMGWYRQAPGKERELVAAITSGGRTYYADSVKGRFTISRENPKNTFYLQMNSLKPEDTAVYYCASYYKYLGYGYWGQGTQVTVSS", "polyreactivity (PSR sort gate)": "high polyreactivity"},
      {"sequence": "QVQLVESGGGLVQAGGSLRLSCAASGNIFFVYAMGWYRQAPGKERELVATITWRGDSTNYADSVKGRFTISRDNAKNTVYLQMNSLKPEDTAVYYCNAEDSYYTFEGDSWGQGTQVTVSS", "polyreactivity (PSR sort gate)": "low polyreactivity"},
      {"sequence": "QVQLVESGGGLVQAGGSLRLSCAASGNIFGEYAMGWYRQAPGKERELVATISSGGDTYYADSVKGRFTISRDNAKNTVYLQMNSLKPEDTAVYYCAVVDTLYESKYDYWGQGTQVTVSS", "polyreactivity (PSR sort gate)": "low polyreactivity"},
      {"sequence": "QVQLVESGGGLVQAGGSLRLSCAASGNIFGFYTMGWYRQAPGKERELVAAIRSRGGSTNYADSVKGRFTISRDNAKNTVYLQMNSLTPEDTAVYYCNKDGTWLARAVTYADFDYWGQGTQVTVSS", "polyreactivity (PSR sort gate)": "low polyreactivity"},
      {"sequence": "QVQLVESGGGLVQAGGSLRLSCAASGNIFGGNAMGWYRQAPGKERELVAAITRGGSTYYADSVKGRFTISRDNAKNTVYLQMNSLTPEDTAVYYCAAQLFKWKNRQSLWFDHGYYWGQGTQLTVSS", "polyreactivity (PSR sort gate)": "low polyreactivity"},
      {"sequence": "QVQLVESGGGLVQAGGSLRLSCAASGNIFGGYAMGWYRQAPGKERELVATIRDRGGSTYYADSVKGRFTISRDNAKNSVYLQMNSLKPEDTAVYYCNPRFRTYRLTMEYWGQGTQVTVSS", "polyreactivity (PSR sort gate)": "high polyreactivity"},
      {"sequence": "QVQLVESGGGLVQAGGSLRLSCAASGNIFGNNAMGWYRPEPGKERELVAAISSSGTSTYYADSVKGRFTISLDNAKNTVYLQMNSLKPEDTAVYYCNADPLPYDGYYDYDYWGQGTQVTVSS", "polyreactivity (PSR sort gate)": "low polyreactivity"},
      {"sequence": "QVQLVESGGGLVQAGGSLRLSCAASGNIFGNNAMGWYRQAPGKERELVAAISSSGTSTYYADSVKGRFTISRDNAKNTVYFQMNSLKPEDTAVYYCNADPLPYDGYYDYDYWGQGTQVTVSS", "polyreactivity (PSR sort gate)": "low polyreactivity"},
      {"sequence": "QVQLVESGGGLVQAGGSLRLSCAASGNIFGPNAMGWYRQAPGKESELVAAISISGSTYYADSVKGRFTISRDNAKNTVYLQRNSLNPEDTAVYYCAADYDSDYSWKYNYWGQGTQVTVSS", "polyreactivity (PSR sort gate)": "low polyreactivity"},
      {"sequence": "QVQLVESGGGLVQAGGSLRLSCAASGNIFGRYAMGWYRQAPGKARELVAAISGSGGRTYYADSVKGRFTISRYNAKKTVYLQMNSLKPEDTAVYYCAKVFALRGYDYWGQGTQVTVSS", "polyreactivity (PSR sort gate)": "high polyreactivity"},
      {"sequence": "QVQLVESGGGLVQAGGSLRLSCAASGNIFGSNAMGWYRQAPGKERELVAAISGSNGGTYYADSVKGRFTISRDNAKNTVYLQMNSLKPEDTAVYYCNADFFSRWGYRYMDYWGQGTQVTVSS", "polyreactivity (PSR sort gate)": "low polyreactivity"},
      {"sequence": "QVQLVESGGGLVQAGGSLRLSCAASGNIFIYNAMGWYRQAPGKERELVASITYSGDSTYYADSVKGRFTISRDNAKNTVYLQMNSLKPEDTAVYFCAAQGYGWWYDYWGQGSQVTVSS", "polyreactivity (PSR sort gate)": "low polyreactivity"},
      {"sequence": "QVQLVESGGGLVQAGGSLRLSCAASGNIFKGYAMGWYRQAPGKERELVAAISKSGGSTYYADSVKGRFTISRDNAKNTVYLQMNSLKPDDTAVYYCNTYTYAGYNYWGQGTQVTVSS", "polyreactivity (PSR sort gate)": "high polyreactivity"},
      {"sequence": "QVQLVESGGGLVQAGGSLRLSCAASGNIFKVYVMGGSRQAPGKERELVAAISGSGGSTYYADSVKGRFTISRDNAKTTVYLQMNSLKPEDTSVYYCNKVFKVTAARSFGYWGQGTQVTVSS", "polyreactivity (PSR sort gate)": "low polyreactivity"},
      {"sequence": "QVQLVESGGGLVQAGGSLRLSCAASGNIFLFYVMGWYRQAPGKERELVAAITLSGTNTYYADSVKGRFTISRDNAKNTVYLQMNSLKPEDTAVYYCNADWWSDGYDYWGQGTQVTVSS", "polyreactivity (PSR sort gate)": "low polyreactivity"},
      {"sequence": "QVQLVESGGGLVQAGGSLRLSCAASGNIFLSYAIGCYRQAPGKEREFVPAIRWSGASTYYADSVKGRFTISRDNAKNTVELQMNSLKPEDTAVYYCGRRALCPRRGIRYDYWGQGSQVTVSS", "polyreactivity (PSR sort gate)": "high polyreactivity"},
      {"sequence": "QVQLVESGGGLVQAGGSLRLSCAASGNIFLYYDMGWYRQAPGKERELVADIDSSGASTYYADSVKGRFTISRDNAKNTVYLQMNSLKPEDTAVYYCAAELHWWYAGYEYGYWGQGTQVTVSS", "polyreactivity (PSR sort gate)": "low polyreactivity"},
      {"sequence": "QVQLVESGGGLVQAGGSLRLSCAASGNIFPAYVMGWYRQAPGKERELVAAITDSDGSTFYADSVKGRFTISRDNAKNTVYLQMNSLKPEDTAVYYCAAYSYRQGWGFGYWGQGTQVTVSS", "polyreactivity (PSR sort gate)": "low polyreactivity"},
      {"sequence": "QVQLVESGGGLVQAGGSLRLSCAASGNIFPRNAMGWYRQAPGKERELVAAISASGDNTYYADSVKGRFTISRDNAKNTVYLQMNSLKPEDTAVYYCAAGTFYESIQPYESVAYDYWGQGTQVTVSS", "polyreactivity (PSR sort gate)": "low polyreactivity"},
      {"sequence": "QVQLVESGGGLVQAGGSLRLSCAASGNIFPYYAMGWYRQAPGKERELVAAISGSGDRTYYADSVKGRFTIARDNAKNTVYLQMNSLKPEDTAVYYCAASRRYYGWYEYWGQGSQVTVSS", "polyreactivity (PSR sort gate)": "high polyreactivity"},
      {"sequence": "QVQLVESGGGLVQAGGSLRLSCAASGNIFPYYAMGWYRQAPGKERELVASISRSGGSTYYADSVKGRFTISRDNAKNTVYLQMNSLKPEDTAVYYCAKRTPYYGFGFFHPARGYGYWGQGTQVTVSS", "polyreactivity (PSR sort gate)": "low polyreactivity"},
      {"sequence": "QVQLVESGGGLVQAGGSLRLSCAASGNIFQKYAMGWYRQAPGKERELVAAIRRGDRTYADSVKGRFTISRDNAKNTVYLQMNSLKPEDTAVYYCNTAGASYFTAGYGYWGQGTQVTVSS", "polyreactivity (PSR sort gate)": "low polyreactivity"},
      {"sequence": "QVQLVESGGGLVQAGGSLRLSCAASGNIFSAYAMGWYRQAPGKERELVAAITNGGRTNYADSVKGRFSISRDNAKNTVYLQMNSLKPEDTAVYYCAVASTILGKRTYYYWGQGTQVTVSS", "polyreactivity (PSR sort gate)": "low polyreactivity"},
      {"sequence": "QVQLVESGGGLVQAGGSLRLSCAASGNIFSDNAMGWYIQAPGKERELVAAITSGGSTNYADSVKGRFTISLDNAKNTVYLQMISLKPEDNAVYYCAADISYRHFLFDYWGQGTQVTVSS", "polyreactivity (PSR sort gate)": "low polyreactivity"},
      {"sequence": "QVQLVESGGGLVQAGGSLRLSCAASGNIFSLNGMGWYRQAPGKEREFVAAITWSVGSTSSADSVKGRFTISRDNAKNTVYLQMNSLKPEDTAVYYGAATVSDLYKHEYYYWGQGTQVTVSS", "polyreactivity (PSR sort gate)": "low polyreactivity"}
    ]}
  ]
}
